We go through one sequence from publication PMC7705038.

In this data set the target is McbR (Escherichia coli (avian pathogenic, strain APECX40)) (UniProt P76114). Put plainly: EMSA. A general note: A gel shift assay detects complexes by their altered migration in electrophoresis.
Chain of McbR (Escherichia coli (avian pathogenic, strain APECX40)) (P76114 whole entry): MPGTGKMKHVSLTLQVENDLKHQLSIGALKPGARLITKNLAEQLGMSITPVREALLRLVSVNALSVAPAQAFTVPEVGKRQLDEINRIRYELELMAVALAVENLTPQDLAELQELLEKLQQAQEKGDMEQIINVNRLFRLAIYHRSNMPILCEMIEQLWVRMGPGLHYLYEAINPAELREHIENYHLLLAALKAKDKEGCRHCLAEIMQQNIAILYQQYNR

For “ATGTTCGTGAATTTACAGGCGTTAGATTTACATACATTTGTGAATGTATGTACCATAGCACGACGATAATATAAACGCAGCAATGGGTTTATTAACTTTTGACCATTGACCAATTTGAAATCGGACACTCGAGGTTTACAT (double strand) [p-acrAB]”, the binding entry is recorded as “binds”.
